The supplement of paper PMC12855868

B1: library; numbered along this chain (parent)
chain: MAAAGGARLLRAASAVLGGPAGRWLHHAGSRAGSSGLLRNRGPGGSAEASRSLSVSARARSSSEDKITVHFINRDGETLTTKGKVGDSLLDVVVENNLDIDGFGACEGTLACSTCHLIFEDHIYEKLDAITDEENDMLDLAYGLTDRSRLGCQICLTKSMDNMTVRVPETVADARQSIDVGKTS

Variants of: B1
Test: scaled log2 fold change in cell abundance, elesclomol vs control (0 = silent mean, 1 = nonsense mean) (scaled log2 ratio); higher = higher viability under elesclomol (loss of FDX1 cuproptosis function)
Conditions: with HEK293T FDX1 KO; elesclomol 40 nM; glucose 10 mM; 11 days
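Also: variant abundance is its share of total variant reads in each endpoint sample, from next-generation sequencing of the integrated ORF PCR-amplified out of genomic DNA.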

Variant | scaled log2 fold change
A15R | -0.519
R51I | 0.315
W24D | -0.665
W24Y | 0.0942
W24S | -0.637
V171G | 0.349
V55A | -0.0113
L127C | 0.0207
G29Q | 0.00954
G29N | 1.01
G29H | -0.53
G29L | 0.376
A4P | -0.59
V16H | 0.416
L89I | -0.0352
S88P | -0.895
S88K | -0.315
S88D | 0.11
S88M | 0.379
S88H | -0.0956
D173I | 0.102

Variant | scaled log2 fold change
H26V | 0.418
H26I | 0.477
A129N | 0.865
E107S | -0.279
G76W | -0.575
L9A | 0.241
S50F | -0.396
S50V | -0.0587
P20V | 0.328
P20R | 0.465
E125I | -0.618
D75P | -0.0681
D75G | 0.0557
A21W | 0.402
S61T | 0.136
S61A | 0.782
S61L | 0.17
S61H | 1.68
S30P | -0.513
S30W | -0.103
G33D | 0.213

Variant | scaled log2 fold change
R31L | -0.385
R31D | 0.39
T157W | -0.456
A57P | -0.118
P168G | -0.0258
S184Q | -0.0365
S184V | 0.648
S184F | -0.432
S184L | 0.57
S184P | 0.83
S184D | 0.845
S184A | 0.908
S184M | 0.661
S184R | -0.427
S184E | 1.03
S184G | -0.25
S184N | 0.0759
S184K | 0.0933
S184T | -0.512
S184H | -0.0277
S184W | 0.713

Variant | scaled log2 fold change
S184I | -0.259
S184Y | 0.879
R60D | 0.0454
L37A | 0.765
L37N | -0.668
L37I | 1.2
S14N | 0.029
L25F | 0.845
G22S | 1.21
G22D | 0.368
T78A | -1.2
T78F | -0.765
S62P | 0.152
S62V | -0.946
N40A | 1.14
N40G | -0.0433
N40H | -0.707
T183Y | 0.0186

Same assay, conditions: with ABC1 FDX1 KO; elesclomol 5 nM; glucose 10 mM; 14 days

Variant | scaled log2 fold change
S184Q | -0.0164
S184V | 0.362
S184F | 0.3
S184L | -0.241
S184P | 0.326
S184D | -0.159
S184A | 0.168
S184M | 0.00413
S184R | 0.0521
S184E | -0.0286
S184G | 0.207
S184N | 0.136
S184K | -0.0652
S184T | -0.0663
S184H | 0.0751
S184W | 0.0507
S184I | 0.126
S184Y | -0.125
S184C | 0.145
T183Y | -0.296
